Laboratory results taken from US20100041597A1 (published 2010).
Read-outs that look alike come from different tables or passages of the source. Values belong to the binder of their own block, whether it stands above or below them.

Key:
[1] = target: T1, PKC-ε (endogenous, human cell extracts) (human, UniProt Q02156 1-737); test: Western-blot competition on cell extracts against the anti-PKC-ε primary antibody; band densitometry
T1 construct: Two bands on the blot, said to be alternate splicing variants; also called PKC-epsilon; PKC-ε Band 1
T1 sequence (looked up): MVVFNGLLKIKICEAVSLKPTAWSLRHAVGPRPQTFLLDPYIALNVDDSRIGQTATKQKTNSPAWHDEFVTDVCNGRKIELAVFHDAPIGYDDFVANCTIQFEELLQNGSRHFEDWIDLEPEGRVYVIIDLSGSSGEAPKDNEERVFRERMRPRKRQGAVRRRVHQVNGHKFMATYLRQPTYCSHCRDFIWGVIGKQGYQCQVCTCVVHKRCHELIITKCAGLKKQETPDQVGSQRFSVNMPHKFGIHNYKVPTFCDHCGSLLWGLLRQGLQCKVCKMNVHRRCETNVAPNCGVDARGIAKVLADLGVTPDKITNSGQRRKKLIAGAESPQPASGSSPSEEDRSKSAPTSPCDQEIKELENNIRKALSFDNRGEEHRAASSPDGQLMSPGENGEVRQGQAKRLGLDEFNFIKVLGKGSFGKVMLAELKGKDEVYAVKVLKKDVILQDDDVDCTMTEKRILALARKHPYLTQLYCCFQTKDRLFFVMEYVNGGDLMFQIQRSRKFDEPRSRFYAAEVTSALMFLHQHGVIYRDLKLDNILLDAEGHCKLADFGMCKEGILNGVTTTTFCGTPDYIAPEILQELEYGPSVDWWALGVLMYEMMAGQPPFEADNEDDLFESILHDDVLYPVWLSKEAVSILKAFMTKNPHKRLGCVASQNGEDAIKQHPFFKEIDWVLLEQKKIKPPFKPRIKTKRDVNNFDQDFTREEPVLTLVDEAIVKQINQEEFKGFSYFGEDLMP

[2] = target: T1, PKC-ε (endogenous, human cell extracts); test: as above; remark: listed apart in the source
Protocol: Binding efficiency and specificity of the peptides PRE 2, 3, 4, 5, 6, 7, 8, 9, 10, 11, 12 and 13 (see Table 3) was also tested using cytoplasmic extracts from different cell lines expressing appropriate PKC isoforms as described for Example 1. Briefly, the protein cytoplasmic extracts were separated by electrophoresis and transferred onto nitrocellulose membranes by standard Western blotting procedures. The bands on the Western blots were detected with matching primary antibodies and alkaline phosphatase conjugated secondary antibody. The bands were then scanned and the relative density measurements obtained.
This procedure to assess the binding characteristics of the PREs is based on competition binding of the PRE with the primary anti-isoform PKC specific antibodies. The lower the measured band density, the greater the binding of the PRE to the PKC isoform. The PREs were added at 10 and 20 times (10×, 20×) the primary antibody concentration, according to classical competition between antigenic peptide and primary antibody. The following cell lines (obtained from the ATCC) were used: H661—NCI human lung carcinoma NSCLC; MDAMB231—human highly invasive breast cancer cell line from pleural effusion; LS180—human colon adenocarcinoma; LnCAP—human prostate adenocarcinoma; CCD16Lu—human lung fibroblasts; Du145—human prostate carcinoma brain metastasis, and T24—human bladder carcinoma.

[3] = target: T2, PKC-ζ (purified isoform) (Homo sapiens (Human), UniProt Q05513 1-592); test: competitive binding assay on purified isoforms: PRE 4 at 20X against the fluorescent anti-PKC-zeta antibody
T2 construct: also called PKC-zeta; PKCzeta
T2 sequence: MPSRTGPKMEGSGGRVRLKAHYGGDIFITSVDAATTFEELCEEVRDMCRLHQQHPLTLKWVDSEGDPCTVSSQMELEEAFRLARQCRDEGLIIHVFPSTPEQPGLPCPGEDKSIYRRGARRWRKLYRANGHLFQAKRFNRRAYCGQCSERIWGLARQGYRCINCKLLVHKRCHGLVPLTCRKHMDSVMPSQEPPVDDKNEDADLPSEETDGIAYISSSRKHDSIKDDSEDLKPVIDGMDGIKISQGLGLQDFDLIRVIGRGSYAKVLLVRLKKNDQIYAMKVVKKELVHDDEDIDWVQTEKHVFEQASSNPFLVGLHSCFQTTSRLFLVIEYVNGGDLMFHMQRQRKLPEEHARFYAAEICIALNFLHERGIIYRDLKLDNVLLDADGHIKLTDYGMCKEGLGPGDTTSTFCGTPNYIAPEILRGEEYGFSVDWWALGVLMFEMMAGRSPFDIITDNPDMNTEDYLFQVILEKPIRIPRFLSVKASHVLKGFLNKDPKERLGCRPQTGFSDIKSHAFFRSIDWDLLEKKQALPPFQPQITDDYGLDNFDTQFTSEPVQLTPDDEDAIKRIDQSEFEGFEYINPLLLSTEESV

[4] = target: T3, PKC-ζ (endogenous, human cell extracts) (human, UniProt Q05513 1-592); test: Western-blot competition on cell extracts against the anti-PKC-ζ primary antibody; band densitometry
T3 construct: also called PKC-zeta
T3 sequence (looked up): T2 sequence

B1: PRE 12 (peptide)
peptide: Ac-KDAQNLI-NH2
notes: Synthetic peptide; also called peptide PRE 12; Ac-KDAQNLI-NH2
binding result [1]: no binding (tested: 20X the primary antibody concentration)

B2: PRE 13 (peptide)
peptide: Ac-RDAQNLI-NH2
notes: Synthetic peptide; also called peptide PRE 13; Ac-RDAQNLI-NH2
binding result [2]: no binding (tested: 20X the primary antibody concentration)

binding result [3]: no binding (tested: 20X)
B3: PRE 4 (peptide)
peptide: Ac-KDAQNLIGISI-NH2
notes: Synthetic peptide; also called peptide PRE 4

B4: PRE 11 (peptide)
peptide: Ac-RDAQNLIGISI-NH2
notes: Synthetic peptide; also called peptide PRE 11
binding result [4]: no binding (tested: 20X the primary antibody concentration)
